Results: patent US11655301B2, “Carrier-binding agent compositions and methods of making and using the same” (Mayo Foundation for Medical Education and Research, priority 2016, dated 2023)

Experiments:
ABX [1] = target: T1, ABX (Homo sapiens, UniProt P02768); assay: Binding of cisplatin to ABX (free cisplatin in supernatant by HPLC); type: physicochemical; settings: ABX 5 mg/ml, cisplatin 0.5 mg/ml, room temperature, 30 minutes
T1 construct: purchased Celgene Corporation, Summit, N.J

ABX [2] = target: T1, ABX; assay: Bio-Layer Interferometry (BLItz) binding of antibody to ABX; settings: for binding affinity to ABX (in words): BLItz; for dependence of binding affinity to ABX on pH / temperature: pH 3, 5, 7, 9, BEV also RT, 37° C., 58° C.
Protocol: The association and dissociation constants were calculated using the BLItz software.

[3] = system: A375 human melanoma cells; assay: A375 human melanoma xenograft in athymic nude mice; type: in vivo; settings: BEV 12 mg/kg, ABX 30 mg/kg, tumors about 700 mm^3 at treatment
Protocol: In vivo experiments were performed at least 2 times. The number of mice required for those experiments was determined by power analysis. Mouse tumors were measured 2-3 times/week and mice were sacrificed when the tumor was 10% by weight. […] The end point of the mouse studies was median survival. Kaplan-Meier curves were generated and Mantle-Cox test was performed to determine significance of median survival between treatment groups. The in vitro results presented are representative of at least 5 repeated experiments. Statistical analyses of in vitro and in vivo percent change from baseline experiments were done using the Student's t-test.
(§1) To test tumor efficacy, 1×10^6 A375 human melanoma cells were implanted into the right flank of athymic nude mice (Harlan Sprague Dawley, Indianapolis, Ind.). […] Tumor size was monitored 3 times/week and tumor volume was calculated with the following equation: (length×width^2)/2. Mice were sacrificed when the tumor size equaled 10% of the mouse body weight or about 2500 mm^3. The day 7 percent change from baseline was calculated as follows: [(tumor size on treatment day-tumor size on day 7)/tumor size on treatment day]×100.
The ABC complex was tested in the A375 melanoma xenotransplant model relative to each drug alone and AB160.
The effect of AB225 was assayed in animals as set forth above.

[4] = system: A375 human melanoma cells; assay: A375 xenograft, BEV pretreatment follow up study; type: in vivo, athymic nude mice; settings: day 7 and day 10 post treatment; BEV 12 mg/kg, ABX 30 mg/kg
Text: Data is represented at day 7-post and day 10-post treatment as tumor volume in mm^3. FIGS. 11A-E track tumor size over 10 days. […] See also FIG. 11 F and FIG. 11 G.

[5] = system: Daudi human lymphoma cells; assay: Daudi lymphoma xenotransplant in athymic nude mice; type: in vivo; settings: ABX 30 mg/kg, rituximab 12 mg/kg
Protocol: Tumor response was determined at day 7 post-treatment by the percent change in tumor size from the first day of treatment.
as §1
On day 7 post treatment, tumors were measured and the percent change in tumor size from baseline was calculated.

CD20 = target: T2, CD20 (Homo sapiens, UniProt P11836); assay: Blocking of fluorescent anti-human CD20 labeling of Daudi cells (flow cytometry); type: cell-based; settings: Daudi cells pretreated before CD20 labeling
T2 construct: endogenous in cells; host or cells: Daudi human B-cell lymphoma cells
T2 sequence (P11836 1-297): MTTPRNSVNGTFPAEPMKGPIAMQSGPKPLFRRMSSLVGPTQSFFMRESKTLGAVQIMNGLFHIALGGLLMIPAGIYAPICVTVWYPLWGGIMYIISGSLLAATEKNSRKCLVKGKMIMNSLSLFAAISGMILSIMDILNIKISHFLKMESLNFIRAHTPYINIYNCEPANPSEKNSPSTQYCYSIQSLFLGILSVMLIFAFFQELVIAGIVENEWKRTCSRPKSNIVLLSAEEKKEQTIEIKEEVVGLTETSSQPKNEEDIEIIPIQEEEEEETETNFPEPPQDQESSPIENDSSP
Text: CD20 positive Daudi lymphoma cells were labeled with fluorescent tagged anti-human CD20 or isotype matched control in panel F and A, respectively, and analyzed by flow cytometry.

Row | Molecule | cisplatin remaining in the supernatant (ABX [1]) [%] | binding affinity to ABX (in words) (ABX [2]) | dependence of binding affinity to ABX on pH / temperature (ABX [2]) | median survival [3] [days] | average tumor volume [4] | median survival [5] [days] | blocking of CD20 binding of fluorescent anti-CD20 (CD20)
1 | N.N.[Cl][Pt][Cl] [cisplatin] | 40 | – | – | – | – | – | –
2 | bevacizumab | – | picomolar range | both pH- and temperature-dependent | 14 | not therapeutic | – | –
3 | rituximab | – | picomolar range | decreased with higher pH | – | – | 12 | specifically blocked
